One assay concerns the target T1, latent TGFβ2 (Chlorocebus aethiops (Green monkey) …, UniProt P61811 20-414).
T1 sequence: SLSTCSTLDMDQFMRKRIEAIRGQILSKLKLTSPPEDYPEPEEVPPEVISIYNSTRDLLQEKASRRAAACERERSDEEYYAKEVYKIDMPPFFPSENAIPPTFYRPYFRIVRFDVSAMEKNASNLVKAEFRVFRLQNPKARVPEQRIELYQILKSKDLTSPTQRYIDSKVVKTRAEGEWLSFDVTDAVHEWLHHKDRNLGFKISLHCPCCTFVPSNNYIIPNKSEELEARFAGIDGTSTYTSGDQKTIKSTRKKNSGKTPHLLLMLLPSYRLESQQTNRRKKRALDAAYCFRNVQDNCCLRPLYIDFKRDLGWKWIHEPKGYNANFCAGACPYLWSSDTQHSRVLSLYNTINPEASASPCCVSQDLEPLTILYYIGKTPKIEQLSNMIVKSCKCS
As to the kind of experiment: Octet (bio-layer interferometry). A general note: In BLI a coated tip is dipped into the sample, and binding shifts an interference pattern.

In the next assay the target is T2, latent TGFβ3 (Homo sapiens (Human), UniProt P10600 21-412, limits assumed).
T2 sequence: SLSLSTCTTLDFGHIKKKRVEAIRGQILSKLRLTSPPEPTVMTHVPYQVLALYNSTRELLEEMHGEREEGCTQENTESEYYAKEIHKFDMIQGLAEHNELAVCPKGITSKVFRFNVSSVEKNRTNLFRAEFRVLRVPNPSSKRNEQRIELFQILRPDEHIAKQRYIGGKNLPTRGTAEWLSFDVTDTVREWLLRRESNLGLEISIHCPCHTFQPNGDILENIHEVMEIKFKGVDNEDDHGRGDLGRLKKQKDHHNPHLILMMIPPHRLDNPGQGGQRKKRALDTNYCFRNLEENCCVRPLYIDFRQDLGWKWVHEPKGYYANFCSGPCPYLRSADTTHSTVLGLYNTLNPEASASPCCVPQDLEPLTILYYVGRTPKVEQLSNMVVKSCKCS
As to the kind of experiment: Octet (bio-layer interferometry).

B1: Ab3 (antibody, V domains shown)
VH: EVQLLESGGGLVQPGGSLRLSCAASGFTFRNYAMSWVRQAPGKGLEWVSSISGSGGATYYADSVKGRFTISRDNSKNTLYLQMNSLRAEDTAVYYCARVSSGHWDFDYWGQGTLVTVSS
VL: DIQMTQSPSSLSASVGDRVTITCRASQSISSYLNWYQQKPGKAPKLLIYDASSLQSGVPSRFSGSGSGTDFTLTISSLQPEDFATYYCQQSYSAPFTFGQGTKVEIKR
notes: described as a fully human monoclonal antibody; Ab3-mIgG1 was used in vivo
Consider B1, for which the binding result with latent TGFβ2 and with latent TGFβ3 was “no binding” in each case.

The values above are taken from patent publication US20240016928A1 (SCHOLAR ROCK, published 2024).
